Reference: article PMC3685266

Assays:
[1] = target: SecA_(D337C/K482C), intramolecularly disulfide cross-linked (clamp closed) (E. coli) (UniProt P10408); test: steady-state ATPase activity titration; 0.15 μM SecA, 1 mM ATP, TKM buffer pH 7.5, 0.03% C12E9, 25°C, increasing purified detergent-solubilized SecYEG, with or without 10 mM DTT; apparent affinity from a ligand-binding fit
[2] = target: SecA_(Δcys), SecA without cysteine residues (E. coli) (UniProt P10408); test: steady-state ATPase activity titration; 80 nM SecA, 1 mM ATP, TKM buffer, increasing vesicles reconstituted with purified SecYEG, with 0.6 μM proOmpA_(Δcys), with or without 10 mM DTT

fold increase in apparent affinity over the SecA (Δcys) control [1]: 500 fold
fold increase in affinity in the presence of proOmpA [2]: 5 fold
Substance: SecYEG complex (from UniProt P0AGA2 1-443; P0AG96 1-127; P0AG99 1-110)
